By Kd is commonly meant the constant that tells how readily two partners part at equilibrium. High values mean lower affinity, low ones higher affinity. The term koff denotes a measure of how fast the partners let go of each other. One may read the kon as the rate constant with which the complex forms. A lower kon goes with slow association. One may read the EC50 as the midpoint of the concentration-response curve.

The target of assay [1] is T1, human PRLR (Biacore antigen) (human, UniProt P16471 25-234, limits assumed).
T1 construct: The construct injected over captured antibody is not described (a soluble form is likely); also called huPRLR
T1 sequence: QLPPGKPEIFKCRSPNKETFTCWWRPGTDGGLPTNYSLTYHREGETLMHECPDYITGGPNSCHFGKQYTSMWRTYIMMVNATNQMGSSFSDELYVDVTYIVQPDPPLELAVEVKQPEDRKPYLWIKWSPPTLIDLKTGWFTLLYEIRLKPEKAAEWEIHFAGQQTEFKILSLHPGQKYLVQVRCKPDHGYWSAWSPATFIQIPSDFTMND
Briefly: SPR Biacore. In short, it runs like this: (§1)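 Association rate, dissociation rate and dissociation constant were measured by surface plasmon resonance on a Biacore instrument. PRLR antigen was tested at 600 nM, 66.67 nM and 7.41 nM, a 3-point, 9-fold dilution series. Constants came from a 1:1 binding model fit (local Rmax, mass-transport term included) in Biacore T200 Evaluation Software.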

In assay [2] the target is T2, murine PRLR (Biacore antigen) (murine, UniProt Q08501 20-229, limits assumed).
T2 construct: also called muPRLR
T2 sequence (looked up): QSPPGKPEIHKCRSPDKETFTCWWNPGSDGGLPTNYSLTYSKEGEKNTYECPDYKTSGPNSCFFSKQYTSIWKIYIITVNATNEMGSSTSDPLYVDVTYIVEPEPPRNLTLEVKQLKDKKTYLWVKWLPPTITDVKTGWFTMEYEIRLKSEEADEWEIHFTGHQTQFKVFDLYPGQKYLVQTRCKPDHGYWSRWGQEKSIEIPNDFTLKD
Briefly: SPR Biacore. In short, it runs like this:
as §1
In general terms: SPR reads the build-up and loss of mass on a sensor chip optically.

For assay [3], the target named is T3, cyno PRLR (Biacore antigen) (cyno, UniProt A0A2K5WXK1 25-234).
T3 construct: also called cyPRLR
T3 sequence: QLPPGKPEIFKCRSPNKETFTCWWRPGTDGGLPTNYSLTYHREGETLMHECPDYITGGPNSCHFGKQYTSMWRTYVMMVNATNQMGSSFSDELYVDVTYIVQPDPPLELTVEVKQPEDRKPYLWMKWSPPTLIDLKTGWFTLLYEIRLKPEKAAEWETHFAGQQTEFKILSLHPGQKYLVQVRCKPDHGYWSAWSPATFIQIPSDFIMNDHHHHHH
The assay is described as follows: SPR Biacore. In short, it runs like this:
as §1

The target in assay [4] is T1, human PRLR (Biacore antigen). Briefly: SPR simultaneous binding; PRLR held by surface mAb Ab49. The procedure: (§2) Running buffer was HBS-EP+ (10 mM Hepes, pH7.4, 150 mM NaCl, 3 mM EDTA, 0.05% surfactant). Assay was performed at 12° C. using Biacore T200 and CM5 sensor chips with anti-human IgG (Pierce) amine-coupled in all 4 flow cells to ˜2000 RU.
(§3) Separate test mAbs were captured in flowcells 2, 3 & 4 (flowcell 1 was reference, no test mAb). All 4 flowcells were then blocked by injection with isotype control mAb at 50 ug/ml. All 4 flowcells were then injected with antigen or buffer only (buffer only is for double referencing, done for each mAb pair individually). All 4 flowcells were then injected with 2nd test mAb at 10 ug/ml. All 4 flowcells were then regenerated with glycine, pH1.5.

The target in assay [5] is cyno PRLR on Baf3-cyPRLR cells (cyno). Briefly: cell-based or functional assay.
Assay [6] deals with T1, human PRLR (Biacore antigen). The assay is described as follows: SPR simultaneous binding; PRLR held by surface mAb Ab48. The method, then: as §2, §3
For assay [7] the target is unchanged. The assay is described as follows: SPR simultaneous binding; PRLR held by surface mAb Ab30. The method, then: as §2, §3
Assay [8] shares this target. The assay is described as follows: SPR simultaneous binding; PRLR held by surface mAb chAb5. The procedure: as §2, §3
Assay [9] deals with T4, cyno PRLR ECD-his6 protein (cyno).
T4 chain: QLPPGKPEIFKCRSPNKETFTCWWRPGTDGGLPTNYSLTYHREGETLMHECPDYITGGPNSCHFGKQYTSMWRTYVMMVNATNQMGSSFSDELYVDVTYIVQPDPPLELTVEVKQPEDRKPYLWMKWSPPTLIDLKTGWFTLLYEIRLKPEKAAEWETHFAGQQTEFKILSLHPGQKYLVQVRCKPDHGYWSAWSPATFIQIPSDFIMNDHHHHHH
The assay is described as follows: ELISA on ECD. In outline:
(§4)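 EC50 values derive from fitted binding curves of antibody serial dilutions (1 h) on captured PRLR. Detection used an HRP-conjugated secondary (1 h), TMB development for 3–5 min, an H₂SO₄ stop and a 450 nm read, with all steps in Tween/PBS pH 7.4 buffer.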
On the technique in general: ELISA stands for enzyme-linked immunosorbent assay.

Assay [10] deals with T5, human PRLR ECD-Fc fusion protein (human, UniProt P16471 25-233).
T5 construct: not shown: Fc region (captured by goat anti-human Fc)
T5 sequence: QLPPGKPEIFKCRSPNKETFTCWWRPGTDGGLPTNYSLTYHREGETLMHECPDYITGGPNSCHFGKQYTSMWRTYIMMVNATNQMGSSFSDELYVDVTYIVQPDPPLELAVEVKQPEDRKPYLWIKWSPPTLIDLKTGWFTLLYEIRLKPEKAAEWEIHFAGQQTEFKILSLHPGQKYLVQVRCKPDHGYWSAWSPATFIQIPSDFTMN
Briefly: ELISA on ECD. In outline:
as §4

The target in assay [11] is T1, human PRLR (Biacore antigen). The assay is described as follows: SPR simultaneous binding; PRLR held by surface mAb Ab21. The procedure: as §2, §3
The target is the same in assay [12]. Briefly: SPR simultaneous binding; PRLR held by surface mAb Ab19. The method, then:
as §2, §3

For assay [13] the target is unchanged. Briefly: SPR simultaneous binding; PRLR held by surface mAb Ab39. The procedure: as §2, §3

B1: chAb8 (antibody, human IgG1, kappa, V domains shown)
VH: EVQLQQSGPELVKPGASVKISCKASGYTFTDYNIHWVKQSHGKSLEWIGYIYPNNDGTGYNQKFKSKATLTVDNSSSTAYMEVRSLTSEDSAVYYCARGDGNYVGDMDYWGQGTSVTVSS
VL: DIQMTQSPASLSASVGETVTITCRASENIYSYLAWYQQKQGKPPQLLVYNAKTLAEGVPSRFSGGGSGTQFSLKINSLQPEDFGSYYCQHHYATPFTFGSGTKLEIKT
notes: chimeric, murine variable and human G1/kappa constant regions
Take B1: the Kd came to 0.183 nM in assay [1], 291 nM in [2] and 3.44 nM in assay [3]. The dissociation rate constant (koff) in [1] turned out to be 9.1e-05 s⁻¹; in [2] it was 0.0538 s⁻¹; in assay [3] it was 0.00177 s⁻¹. Further, the kon in [1] was 496000 M⁻¹ s⁻¹; in assay [2] it was 185000 M⁻¹ s⁻¹; in assay [3] it was 514000 M⁻¹ s⁻¹. Further, the “solution mAb binding, % of PRLR binding” value in [4] was -1%; in assay [6], -1%; in assay [7] it was -1%; in [8], 0%; in [11], -1%; in assay [12] it was -1%. Further, the “solution mAb binding, % of PRLR binding” value in assay [13] is -2%. For the same molecule, the “Baf3-cyPRLR proliferation IC50” value in [5] is 2.94 µg/mL. Further, the results for the EC50 in [9] and in assay [10] were 0.191 nM and 0.08 nM, respectively.

B2: Ab48 (antibody, human IgG1, kappa, V domains shown)
VH: EVQLVQSGAEVKKPGASVKVSCKASGYTFTDYNIHWVRQAPGQGLEWIGYIYPNNDGTGYNQKFKSRATLTVDNSTSTAYMELRSLRSDDTAVYYCARGDGNYVGDMDYWGQGTTVTVSS
VL: DIQMTQSPSSLSASVGDRVTITCRASENIYSYLAWYQQKPGKPPKLLVYNAKTLAEGVPSRFSGSGSGTDFTLTISSLQPEDFATYYCQHHYATPFTFGQGTKLEIKR
notes: humanized from Ab8; G1; also called Ab3 HC.1a and Ab3 LC.1a
Regarding B2, the Kd worked out at 0.18 nM in [1], 453 nM in [2] and 9.77 nM in [3]. The figures for the koff in assay [1], in assay [2] and in assay [3] were 9.84e-05 s⁻¹, 0.0983 s⁻¹ and 0.00563 s⁻¹, respectively. Further, the on-rate (kon) in [1] came to 546000 M⁻¹ s⁻¹; in assay [2] it was 217000 M⁻¹ s⁻¹; in [3] it was 576000 M⁻¹ s⁻¹. The “solution mAb binding, % of PRLR binding” value in [4] is -2%; in assay [6], -1%; in assay [7] it was -1%; in assay [8], 0%; in assay [11], -1%; in assay [12] it was -1%. For the same molecule, the “solution mAb binding, % of PRLR binding” value in [13] is -2%. Moreover, the “Baf3-cyPRLR proliferation IC50” value in [5] was 4.87 µg/mL. Moreover, the 50% effective concentration (EC50) is 0.236 nM in assay [9] and 0.0746 nM in assay [10].

B3: LFA102 (antibody, human IgG1, kappa, V domains shown)
VH: EVQLVESGGGLVQPGGSLRLSCAVSGFTFSSYGMSWVRQAPGKRLEWVATVSSGGTYTYYPDSVKGRFTISRDNSKNTLYLQMNSLRAEDTAMYYCARHRGNYYATYYYAMDYWGQGTLVTVSS
VL: DIVLTQSPDSLAVSLGERATINCKASKSVSTSGYTYMHWYQQKPGQPPKLLIYLASNRESGVPDRFSGSGSGTDFTLTISPVQAEDVATYYCQHSGELPPSFGQGTKLEIKR
notes: humanized IgG1 kappa comparator (WO 2008022295)
On to B3, for which the Kd was 1.3 nM in assay [1], 26 nM in assay [2] and 11 nM in [3]. The results for the koff in [1], in assay [2] and in assay [3] were 0.00073 s⁻¹, 0.016 s⁻¹ and 0.0095 s⁻¹, respectively. For the same molecule, the kon in assay [1] was 560000 M⁻¹ s⁻¹; in assay [2], 620000 M⁻¹ s⁻¹; in assay [3], 880000 M⁻¹ s⁻¹. Also, the “solution mAb binding, % of PRLR binding” value in assay [4] was 1%; in assay [6] it was -1%; in [7], 35%; in assay [8], 32%; in assay [11], 21%; in assay [12], 19%. Further, the “solution mAb binding, % of PRLR binding” value in [13] was 36%. Besides, in assay [5], the “Baf3-cyPRLR proliferation IC50” value was above 30 µg/mL. Moreover, the EC50 in assay [9] turned out to be 0.154 nM; in [10] it was 0.053 nM.

B4: chAb6 (antibody, human IgG1, kappa, V domains shown)
VH: QVQLQQPGAELVMPGSSVKLSCKASGYTFTTYWMHWVKQRPGQGLEWIGEIDPSDSYSNYNQKFKDKATLTVDKSSSTAYMQLSSLTSEDSAVYYCARNGGLGPAWFSYWGQGTLVTVSA
VL: DIVMTQSQKFMSTTVGDRVSITCKASQYVGTAVAWYQQKPGQSPKLLIYSASNRYTGVPDRFTDSGSGTDFTLTISNLQSEDLADYFCQQYSSYPWTFGGGTKLEIKT
notes: as for B1
On to B4, for which the Kd is 0.469 nM in assay [1], 608 nM in assay [2] and 0.794 nM in assay [3]. In addition, the koff in [1] came out at 0.000536 s⁻¹; in assay [2], 0.36 s⁻¹; in [3], 0.00103 s⁻¹. Also, the figures for the association rate constant (kon) in assay [1], in assay [2] and in [3] were 1.14e+06 M⁻¹ s⁻¹, 591000 M⁻¹ s⁻¹ and 1.3e+06 M⁻¹ s⁻¹, respectively. Also, the “solution mAb binding, % of PRLR binding” value in assay [4] is 0%; in assay [6], 0%; in [7], -1%; in assay [8], 0%; in assay [11], -1%; in [12], -1%. The “solution mAb binding, % of PRLR binding” value in [13] is -2%. Besides, in assay [5], the “Baf3-cyPRLR proliferation IC50” value turned out to be 12.2 µg/mL. Further, the EC50 in assay [9] amounted to 0.072 nM; in assay [10], 0.103 nM.

B5: chAb5 (antibody, human IgG1, kappa, V domains shown)
VH: QVQLQQPGAELVRPGTSVKLSCKASGYTFTSFWMHWVKQRPGQGLEWIGVIDPSDTYTNYNQKFKGKATLTVDTSSSTAYMQLSSLTSEDSAVYYCARGDYSNWFTYWGQGTLVTVSA
VL: DVVMTQTPLSLPVSLGDQASISCRSSQRLVHSNGNTYLHWYLQKPGQSPKLLIYKVSNRFSGVPDRFSGSGSGTDFTLKISRVEAEDLGVYFCSQSTHVPWTFGGGTKLEIKT
notes: as for B1
In the case of B5, the equilibrium dissociation constant (Kd) in assay [1] came out at 0.558 nM; in assay [2], 13.8 nM; in [3] it was 0.671 nM. Also, the koff was found to be 0.000199 s⁻¹ in assay [1], 0.00277 s⁻¹ in assay [2] and 0.000223 s⁻¹ in [3]. The kon in [1] amounted to 356000 M⁻¹ s⁻¹; in assay [2] it was 200000 M⁻¹ s⁻¹; in assay [3], 333000 M⁻¹ s⁻¹. The “solution mAb binding, % of PRLR binding” value in assay [4] was 7%; in assay [6] it was 8%; in assay [7], -1%; in [8] it was 0%; in [11], -1%; in assay [12], 0%. Moreover, in assay [13], the “solution mAb binding, % of PRLR binding” value is -2%. Also, the “Baf3-cyPRLR proliferation IC50” value in assay [5] was 0.42 µg/mL. Further, the results for the EC50 in assay [9] and in assay [10] were 0.103 nM and 0.098 nM, respectively.

(Values after US20170022281A1 (AbbVie / Abbott, published 2017).)
